In US20200199241A1 one finds relative binding activity (% of GpH7-B3/GpL16-k0) data, which are given here for 27 substances.

Chain of FcγRIIb (human) (P31994 43-217 limits assumed): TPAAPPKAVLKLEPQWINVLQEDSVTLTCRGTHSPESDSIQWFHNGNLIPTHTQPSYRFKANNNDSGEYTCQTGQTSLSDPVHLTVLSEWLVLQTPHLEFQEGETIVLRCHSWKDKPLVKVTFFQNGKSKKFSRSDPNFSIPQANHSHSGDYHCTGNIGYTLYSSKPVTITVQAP
Chain of human FcγRIIa(H) (human) (P12318 other isoform, or with tags, fused parts or gaps limits assumed): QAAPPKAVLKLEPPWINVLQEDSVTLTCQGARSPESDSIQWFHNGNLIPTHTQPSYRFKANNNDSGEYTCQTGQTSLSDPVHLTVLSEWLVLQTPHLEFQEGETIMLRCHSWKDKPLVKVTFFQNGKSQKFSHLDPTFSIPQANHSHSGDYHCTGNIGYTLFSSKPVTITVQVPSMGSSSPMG

One test deals with human FcγRIIa(R) (human) (UniProt P12318). Description: SPR (Biacore). Background: Surface plasmon resonance follows binding to a sensor surface in real time, without labels.
Chain of human FcγRIIa(R) (human) (P12318 other isoform, or with tags, fused parts or gaps limits assumed): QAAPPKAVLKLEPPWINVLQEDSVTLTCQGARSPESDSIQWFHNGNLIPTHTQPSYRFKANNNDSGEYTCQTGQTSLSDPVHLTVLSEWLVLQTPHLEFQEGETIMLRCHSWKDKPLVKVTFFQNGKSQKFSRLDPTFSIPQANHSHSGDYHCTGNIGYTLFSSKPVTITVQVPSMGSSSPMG
In turn, “GpH7-B3 variant G236K/GpL16-k0 (antibody)” gave a relative binding activity (% of GpH7-B3/GpL16-k0) of 9. Regarding “GpH7-B3 variant G237P/GpL16-k0 (antibody)”, the relative binding activity (% of GpH7-B3/GpL16-k0) worked out at 8. Still for that read-out and setting: in the case of “GpH7-B3 variant L234G/GpL16-k0 (antibody)” it was 9; in that of “GpH7-B3 variant S239R/GpL16-k0 (antibody)”, 8.

A further test addresses human FcγRIIa(H) (human) (UniProt P12318). Description: SPR (Biacore).
For “GpH7-B3 variant G237A/GpL16-k0 (antibody)”, the relative binding activity (% of GpH7-B3/GpL16-k0) is 9. In turn, “GpH7-B3 variant S239W/GpL16-k0 (antibody)” showed a relative binding activity (% of GpH7-B3/GpL16-k0) of 9. Substance “GpH7-B3 variant V266F/GpL16-k0 (antibody)” showed a relative binding activity (% of GpH7-B3/GpL16-k0) of 8.

Another test has as its target FcγRIIb (human) (UniProt P31994). Description: SPR (Biacore).
Take “GpH7-B3 variant E269H/GpL16-k0 (antibody)”: the relative binding activity (% of GpH7-B3/GpL16-k0) came out at 8. The same measure, in the same setting: the result for “GpH7-B3 variant E269I/GpL16-k0 (antibody)” reads 9.

For the next test, the target named is human FcγRIIIa(F) (human) (UniProt P08637). Description: SPR (Biacore).
Chain of human FcγRIIIa(F) (human) (P08637 other isoform, or with tags, fused parts or gaps limits assumed): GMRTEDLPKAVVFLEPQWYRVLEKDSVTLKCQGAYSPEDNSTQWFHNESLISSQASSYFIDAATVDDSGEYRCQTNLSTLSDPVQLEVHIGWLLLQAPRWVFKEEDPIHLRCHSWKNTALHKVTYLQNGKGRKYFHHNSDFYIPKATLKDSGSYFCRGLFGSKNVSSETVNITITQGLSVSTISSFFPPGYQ
Take “GpH7-B3 variant E269W/GpL16-k0 (antibody)”: the relative binding activity (% of GpH7-B3/GpL16-k0) was 9.

A further test concerns the target FcγRIIb (human) (UniProt P31994). In words: SPR, captured antibody.
For GpH7-B3 S298W/GpL16-k0 (antibody), the relative binding activity (% of GpH7-B3/GpL16-k0) came to 9.

The next test has as its target human FcγRIIIa(F) (human) (UniProt P08637). In words: SPR, captured antibody.
As for GpH7-B3 Q295W/GpL16-k0 (antibody), the relative binding activity (% of GpH7-B3/GpL16-k0) is 10. In turn, GpH7-B3 Q295Y/GpL16-k0 (antibody) gave a relative binding activity (% of GpH7-B3/GpL16-k0) of 49. The same measure, in the same setting: the result for GpH7-B3 S298G/GpL16-k0 (antibody) reads 59. Substance GpH7-B3 S298K/GpL16-k0 (antibody) came in with a relative binding activity (% of GpH7-B3/GpL16-k0) of 25. On the same count and under the same terms, the result for GpH7-B3 S298P/GpL16-k0 (antibody) reads 0; that for GpH7-B3 S298R/GpL16-k0 (antibody), 20. In turn, GpH7-B3 S298W/GpL16-k0 (antibody) came in with a relative binding activity (% of GpH7-B3/GpL16-k0) of 11. Same read-out and setting: the result for GpH7-B3 S298Y/GpL16-k0 (antibody) reads 71.

Regarding GpH7-B3 S324K/GpL16-k0 (antibody), the relative binding activity (% of GpH7-B3/GpL16-k0) was 74. GpH7-B3 S324P/GpL16-k0 (antibody) displayed a relative binding activity (% of GpH7-B3/GpL16-k0) of 35.

In turn, GpH7-B3 Y296G/GpL16-k0 (antibody) displayed a relative binding activity (% of GpH7-B3/GpL16-k0) of 21. Same read-out and setting: in the case of GpH7-B3 Y296K/GpL16-k0 (antibody) it was 21; in that of GpH7-B3 Y296P/GpL16-k0 (antibody), 8.

In turn, GpH7-B3 Y296R/GpL16-k0 (antibody) came in with a relative binding activity (% of GpH7-B3/GpL16-k0) of 38. On to GpH7-B3 Y300K/GpL16-k0 (antibody), for which the relative binding activity (% of GpH7-B3/GpL16-k0) is 35. GpH7-B3 Y300P/GpL16-k0 (antibody) yielded a relative binding activity (% of GpH7-B3/GpL16-k0) of -1.

GpH7-B3 Y300R/GpL16-k0 (antibody) had a relative binding activity (% of GpH7-B3/GpL16-k0) of 12.
